The values that follow come from US20250066456A1 (NOVAVAX, published 2025).

Read-outs that look alike come from different tables or passages of the source.

In experiment [1] the target is BV2561 (recombinant CoV S glycoprotein, BA.2.75) (SARS-CoV-2, UniProt P0DTC2 14-1273). The experiment can be described thus: ELISA on coated rS. In general terms: In an ELISA, binding on a coated surface is turned into a signal by an enzyme label.
Experiment [2] has as its target T1, BV2509 (recombinant CoV S glycoprotein, BA.1) (SARS-CoV-2, UniProt P0DTC2 14-1273). The experiment can be described thus: ELISA on coated rS.
For experiment [3], the target named is T2, Delta Plus CoV S glycoprotein (recombinant) (Severe acute respiratory syndrome …, UniProt P0DTC2 14-1273). Briefly: hACE2 receptor inhibition ELISA on coated rS; competitor hACE2-His.
Experiment [4] addresses T3, BV2373 (recombinant CoV S glycoprotein, Prototype) (SARS-CoV-2, UniProt P0DTC2 14-1273). The experiment is described as above.
Experiment [5] deals with T4, BV2438 (recombinant CoV S glycoprotein, Beta) (SARS-CoV-2, UniProt P0DTC2 14-1273). The description is as above.
The target in experiment [6] is T5, BV2425 (recombinant CoV S glycoprotein, Alpha) (SARS-CoV-2, UniProt P0DTC2 14-1273). The description is as above.
Experiment [7] has as its target T6, BV2443 (recombinant CoV S glycoprotein, Gamma) (SARS-CoV-2, UniProt P0DTC2 14-1273). Described as above.
The target of experiment [8] is T1, BV2509 (recombinant CoV S glycoprotein, …). The experiment is described as above.
For experiment [9], the target named is T7, BV2465 (recombinant CoV S glycoprotein, Delta) (SARS-CoV-2, UniProt P0DTC2 14-1273). The experiment is described as above.
The target of experiment [10] is T8, BV2562 (recombinant CoV S glycoprotein, BA.4.6) (SARS-CoV-2, UniProt P0DTC2 14-1273).
Experiment [11] has as its target T9, BV2541 (recombinant CoV S glycoprotein, BA.4) (SARS-CoV-2, UniProt P0DTC2 14-1273).
Experiment [12] addresses T2, Delta Plus CoV S glycoprotein …. The experiment can be described thus: ELISA on coated rS.
Experiment [13] has as its target T3, BV2373 (recombinant CoV S glycoprotein, …). Briefly: ELISA on coated rS.
In experiment [14] the target is T4, BV2438 (recombinant CoV S glycoprotein, …). The experiment can be described thus: ELISA on coated rS.
Experiment [15] addresses T5, BV2425 (recombinant CoV S glycoprotein, …). The experiment can be described thus: ELISA on coated rS.
Experiment [16] addresses T6, BV2443 (recombinant CoV S glycoprotein, …). The experiment can be described thus: ELISA on coated rS.
Experiment [17] addresses T1, BV2509 (recombinant CoV S glycoprotein, …). The experiment can be described thus: ELISA on coated rS. The source holds these as a separate data set.
Experiment [18] concerns the target T7, BV2465 (recombinant CoV S glycoprotein, …). The experiment can be described thus: ELISA on coated rS.
Experiment [19] addresses T10, BV2589 (recombinant CoV S glycoprotein, BQ.1.1) (SARS-CoV-2, UniProt P0DTC2 14-1273). The experiment can be described thus: BLI, antibody on anti-mouse Fc biosensor, rS analyte. A general note: Biolayer interferometry detects binding as a change in optical thickness at a sensor tip.
In experiment [20] the target is T8, BV2562 (recombinant CoV S glycoprotein, …). Briefly: ELISA on coated rS.
Experiment [21] deals with T10, BV2589 (recombinant CoV S glycoprotein, …). Briefly: ELISA on coated rS.
For experiment [22], the target named is T9, BV2541 (recombinant CoV S glycoprotein, …). Briefly: ELISA on coated rS.
For experiment [23], the target named is T4, BV2438 (recombinant CoV S glycoprotein, …). Briefly: ELISA, plate coated with rS, serial dilution of the mAb, anti-mouse HRP, A450.
Experiment [24] deals with T7, BV2465 (recombinant CoV S glycoprotein, …). Described as above.
The target in experiment [25] is T2, Delta Plus CoV S glycoprotein ….
Experiment [26] shares this target. The source holds these as a separate data set.
Experiment [27] has as its target T6, BV2443 (recombinant CoV S glycoprotein, …).

B1: 35.13 (antibody, V domains shown)
VH: QVQLQQSGAELGKPGASVKLSCRASGYTFTRYYIYWVKQRPGQGLEWIGEINPSNGDTHFNEKFKTKATLTVDKSSSSAHIHLTSLTSEDSAVYYCSIHAYSFDFWGQGTTLTVSS
VL: EIQMTQSPSSMSASLGDRITITCQATQDIVKNLNWYQQKPGKPPSFLIYHATELAKGVPSRFSGSGSGSDYSLTISNLESEDFADYYCLQFYDFPFTFGAGTKLELKR
Take B1: the concentration for a half-maximal effect (EC50) in experiment [1] was determined as 0.048 µg/mL; in [2], 0.038 µg/mL; in experiment [12] it was 0.011 µg/mL; in experiment [13] it was 0.007 µg/mL; in [14] it was 0.119 µg/mL; in experiment [15], 0.011 µg/mL. In addition, the 50% effective concentration (EC50) in [16] stood at 0.012 µg/mL; in [17], 0.05 µg/mL; in experiment [18], 0.01 µg/mL. The concentration for half-maximal inhibition (IC50) turned out to be 0.065 µg/mL in experiment [3]; 0.074 µg/mL in experiment [4]; 0.922 µg/mL in [5]; 0.142 µg/mL in experiment [6]; 0.07 µg/mL in experiment [7]; 0.102 µg/mL in experiment [8]. Moreover, the figures for the half-maximal inhibitory concentration (IC50) in experiment [9], in experiment [10] and in [11] were 0.098 µg/mL, greater than 3 µg/mL and greater than 3 µg/mL, respectively. The Kd in experiment [19] is less than 1 pM. The koff in experiment [19] was less than 1e-07 s⁻¹. Further, the on-rate constant (kon) in [19] is 26900 M⁻¹ s⁻¹.

B2: 322.3 (antibody, V domains shown)
VH: RVQLQQSGPELVKPGASVTISCKASGYIFTSDYIHWVKQRPGQGPEWIGWIYPGNINTKYNEKFKGKATLTADKSSSTAYMQLSSLTSEDSAVYFCARDDGNLYYYAMDYWGQGTSVTVSS
VL: NIVLTQSPASLAVSLGQRATISCRASESVDSYGSSFMHWYQQKPGQPPKLLIYLASNLESGVPARFSGSGSRTDFTLTIDPVEADDAATYYCQQNNEDPRTFGGGTKLEIK
B2: the EC50 in experiment [1] came out at 0.144 µg/mL; in [20] it was 0.117 µg/mL; in experiment [21] it was 0.077 µg/mL; in experiment [2], 0.197 µg/mL; in [22], 0.082 µg/mL; in [23], 0.084 µg/mL. Further, the EC50 in experiment [24] was determined as 0.082 µg/mL; in [25] it was 0.054 µg/mL. Besides, the Kd in experiment [19] was 1.63 pM.

B3: 425.6 (antibody, V domains shown)
VH: VQLKQSGPSLVQPSQSLSITCTVSGFSLTSYGIHWVRQSPGKGLEWLGVIWRGGSTDYNAAFMSRLTITKDNSKSQVFFKMNSLQADDTAIYYCATHTEGDDVDYWGQGTSVTVSS
VL: QIVLTQSPAIMSVSPGEKVTMTCSASSTMSFMYWYQQKPGSSPRLLIYDTSNLASGVPVRFSGSGSGTSYSLTISRVEAEDAATYYCQQWNTYPLTFGAGTKLELKR
For B3, the EC50 in experiment [20] is 0.021 µg/mL; in experiment [22] it was 0.016 µg/mL; in [26], 0.0098 µg/mL. Further, the IC50 is 0.064 µg/mL in experiment [4]; 0.048 µg/mL in experiment [5]; 0.1 µg/mL in experiment [6]; 0.048 µg/mL in experiment [7]; greater than 3 µg/mL in [8]; 0.069 µg/mL in experiment [9]. The Kd in experiment [27] was 3.52 pM; with BV2457 (rS India), less than 1 pM. Further, the dissociation rate constant (koff) with BV2457 (rS India) turned out to be 1.88e-07 s⁻¹. In addition, the kon with BV2457 (rS India) was determined as 117000 M⁻¹ s⁻¹.

The term EC50 denotes the concentration that produces a half-maximal response. A word on the IC50: it is the concentration that inhibits the measured activity by half. As usually defined, the Kd is the constant that tells how readily two partners part at equilibrium. In general, koff refers to a measure of how fast the partners let go of each other. One may read the kon as the second-order rate constant of association.
